Results published in the supplement of paper PMC11316812.
± gives the standard deviation of the averaged measurements.

What was measured:
MCF7 = assay: percentage of EdU-negative (G0-arrested) nuclei per well, 72 h; higher = more G0 arrest; conditions: reference: sequence is the full UniProt precursor, the tested protein was the secreted form or ectodomain
hTERT-HMEC = assay: as above; conditions: reference: sequence is the full UniProt precursor, the tested protein was the secreted form or ectodomain
[1] = protein concentration 0.0322857 µM
[2] = protein concentration 0.322857 µM
[3] = protein concentration 0.00525 µM
[4] = protein concentration 0.0525 µM
[5] = protein concentration 0.0225 µM
[6] = protein concentration 0.0215 µM
[7] = protein concentration 0.019925 µM
[8] = protein concentration 0.19925 µM
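Note: secreted proteins added to cultured cells, EdU pulse at the end, nuclei found by Hoechst imaging, EdU status from nuclear versus surrounding ring intensity ratio, PBS as neutral control.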

Sequence | percentage of EdU-negative (MCF7; [5]) | percentage of EdU-negative (MCF7; protein concentration 0.225 µM) | percentage of EdU-negative (hTERT-HMEC; [5]) | percentage of EdU-negative (hTERT-HMEC; protein concentration 0.225 µM) | also measured
MASYLYGVLFAVGLCAPIYCVSPANAPSAYPRPSSTKSTPASQVYSLNTDFAFRLYRRLVLETPSQNIFFSPVSVSTSLAMLSLGAHSVTKTQILQGLGFNLTHTPESAIHQGFQHLVHSLTVPSKDLTLKMGSALFVKKELQLQANFLGNVKRLYEAEVFSTDFSNPSIAQARINSHVKKKTQGKVVDIIQGLDLLTAMVLVNHIFFKAKWEKPFHPEYTRKNFPFLVGEQVTVHVPMMHQKEQFAFGVDTELNCFVLQMDYKGDAVAFFVLPSKGKMRQLEQALSARTLRKWSHSLQKRWIEVFIPRFSISASYNLETILPKMGIQNVFDKNADFSGIAKRDSLQVSKATHKAVLDVSEEGTEATAATTTKFIVRSKDGPSYFTVSFNRTFLMMITNKATDGILFLGKVENPTKS [Q86WD7] |  |  |  |  | percentage of EdU-negative (MCF7; [1]): 27.1 ± 1.6%; percentage of EdU-negative (MCF7; [2]): 25.7 ± 0.86%; percentage of EdU-negative (hTERT-HMEC; [1]): 5.19 ± 0.14%; percentage of EdU-negative (hTERT-HMEC; [2]): 6.1 ± 0.46%
MATFISVQLKKTSEVDLAKPLVKFIQQTYPSGGEEQAQYCRAAEELSKLRRAAVGRPLDKHEGALETLLRYYDQICSIEPKFPFSENQICLTFTWKDAFDKGSLFGGSVKLALASLGYEKSCVLFNCAALASQIAAEQNLDNDEGLKIAAKHYQFASGAFLHIKETVLSALSREPTVDISPDTVGTLSLIMLAQAQEVFFLKATRDKMKDAIIAKLANQAADYFGDAFKQCQYKDTLPKEVFPVLAAKHCIMQANAEYHQSILAKQQKKFGEEIARLQHAAELIKTVASRYDEYVNVKDFSDKINRALAAAKKDNDFIYHDRVPDLKDLDPIGKATLVKSTPVNVPISQKFTDLFEKMVPVSVQQSLAAYNQRKADLVNRSIAQMREATTLANGVLASLNLPAAIEDVSGDTVPQSILTKSRSVIEQGGIQTVDQLIKELPELLQRNREILDESLRLLDEEEATDNDLRAKFKERWQRTPSNELYKPLRAEGTNFRTVLDKAVQADGQVKECYQSHRDTIVLLCKPEPELNAAIPSANPAKTMQGSEVVNVLKSLLSNLDEVKKEREGLENDLKSVNFDMTSKFLTALAQDGVINEEALSVTELDRVYGGLTTKVQESLKKQEGLLKNIQVSHQEFSKMKQSNNEANLREEVLKNLATAYDNFVELVANLKEGTKFYNELTEILVRFQNKCSDIVFARKTERDELLKDLQQSIAREPSAPSIPTPAYQSSPAGGHAPTPPTPAPRTMPPTKPQPPARPPPPVLPANRAPSATAPSPVGAGTAAPAPSQTPGSAPPPQAQGPPYPTYPGYPGYCQMPMPMGYNPYAYGQYNMPYPPVYHQSPGQAPYPGPQQPSYPFPQPPQQSYYPQQ [Q8WUM4] |  |  |  |  | percentage of EdU-negative (MCF7; [3]): 24.7 ± 1.5%; percentage of EdU-negative (MCF7; [4]): 25.1 ± 1%; percentage of EdU-negative (hTERT-HMEC; [3]): 4.68 ± 0.54%; percentage of EdU-negative (hTERT-HMEC; [4]): 4.872 ± 0.012%
MATHHTLWMGLALLGVLGDLQAAPEAQVSVQPNFQQDKFLGRWFSAGLASNSSWLREKKAALSMCKSVVAPATDGGLNLTSTFLRKNQCETRTMLLQPAGSLGSYSYRSPHWGSTYSVSVVETDYDQYALLYSQGSKGPGEDFRMATLYSRTQTPRAELKEKFTAFCKAQGFTEDTIVFLPQTDKCMTEQ | 27.3 ± 2.4% | 25.1 ± 1.9% | 4.95 ± 1.2% | 7.39 ± 0.34% | 
MATMENKVICALVLVSMLALGTLAEAQTETCTVAPRERQNCGFPGVTPSQCANKGCCFDDTVRGVPWCFYPNTIDVPPEEECEF |  |  |  |  | percentage of EdU-negative (MCF7; [6]): 25.09 ± 0.25%; percentage of EdU-negative (MCF7; protein concentration 0.215 µM): 25 ± 1.6%; percentage of EdU-negative (hTERT-HMEC; [6]): 4.62 ± 0.35%; percentage of EdU-negative (hTERT-HMEC; protein concentration 0.215 µM): 5.31 ± 0.26%
MATMVPSVLWPRACWTLLVCCLLTPGVQGQEFLLRVEPQNPVLSAGGSLFVNCSTDCPSSEKIALETSLSKELVASGMGWAAFNLSNVTGNSRILCSVYCNGSQITGSSNITVYRLPERVELAPLPPWQPVGQNFTLRCQVEDGSPRTSLTVVLLRWEEELSRQPAVEEPAEVTATVLASRDDHGAPFSCRTELDMQPQGLGLFVNTSAPRQLRTFVLPVTPPRLVAPRFLEVETSWPVDCTLDGLFPASEAQVYLALGDQMLNATVMNHGDTLTATATATARADQEGAREIVCNVTLGGERREARENLTVFSFLGPIVNLSEPTAHEGSTVTVSCMAGARVQVTLDGVPAAAPGQPAQLQLNATESDDGRSFFCSATLEVDGEFLHRNSSVQLRVLYGPKIDRATCPQHLKWKDKTRHVLQCQARGNPYPELRCLKEGSSREVPVGIPFFVNVTHNGTYQCQASSSRGKYTLVVVMDIEAGSSHFVPVFVAVLLTLGVVTIVLALMYVFREHQRSGSYHVREESTYLPLTSMQPTEAMGEEPSRAE | 25.2 ± 0.75% | 28 ± 1.2% | 4.98 ± 0.59% | 16.4 ± 1.8% | 
MATSMGLLLLLLLLLTQPGAGTGADTEAVVCVGTACYTAHSGKLSAAEAQNHCNQNGGNLATVKSKEEAQHVQRVLAQLLRREAALTARMSKFWIGLQREKGKCLDPSLPLKGFSWVGGGEDTPYSNWHKELRNSCISKRCVSLLLDLSQPLLPSRLPKWSEGPCGSPGSPGSNIEGFVCKFSFKGMCRPLALGGPGQVTYTTPFQTTSSSLEAVPFASAANVACGEGDKDETQSHYFLCKEKAPDVFDWGSSGPLCVSPKYGCNFNNGGCHQDCFEGGDGSFLCGCRPGFRLLDDLVTCASRNPCSSSPCRGGATCVLGPHGKNYTCRCPQGYQLDSSQLDCVDVDECQDSPCAQECVNTPGGFRCECWVGYEPGGPGEGACQDVDECALGRSPCAQGCTNTDGSFHCSCEEGYVLAGEDGTQCQDVDECVGPGGPLCDSLCFNTQGSFHCGCLPGWVLAPNGVSCTMGPVSLGPPSGPPDEEDKGEKEGSTVPRAATASPTRGPEGTPKATPTTSRPSLSSDAPITSAPLKMLAPSGSPGVWREPSIHHATAASGPQEPAGGDSSVATQNNDGTDGQKLLLFYILGTVVAILLLLALALGLLVYRKRRAKREEKKEKKPQNAADSYSWVPERAESRAMENQYSPTPGTDC [Q9NPY3] | 25.7 ± 0.77% | 26.9 ± 0.77% | 5.36 ± 0.65% | 4.92 ± 0.54% | 
MAVAAAAAAAGPAGAGGGRAQRSGLLEVLVRDRWHKVLVNLSEDALVLSSEEGAAAYNGIGTATNGSFCRGAGAGHPGAGGAQPPDSPAGVRTAFTDLPEQVPESISNQKRGVKVLKQELGGLGISIKGGKENKMPILISKIFKGLAADQTQALYVGDAILSVNGADLRDATHDEAVQALKRAGKEVLLEVKYMREATPYVKKGSPVSEIGWETPPPESPRLGGSTSDPPSSQSFSFHRDRKSIPLKMCYVTRSMALADPENRQLEIHSPDAKHTVILRSKDSATAQAWFSAIHSNVNDLLTRVIAEVREQLGKTGIAGSREIRHLGWLAEKVPGESKKQWKPALVVLTEKDLLIYDSMPRRKEAWFSPVHTYPLLATRLVHSGPGKGSPQAGVDLSFATRTGTRQGIETHLFRAETSRDLSHWTRSIVQGCHNSAELIAEISTACTYKNQECRLTIHYENGFSITTEPQEGAFPKTIIQSPYEKLKMSSDDGIRMLYLDFGGKDGEIQLDLHSCPKPIVFIIHSFLSAKITRLGLVA | 27.8 ± 2.2% | 25.6 ± 0.97% | 4.71 ± 0.2% | 6.28 ± 0.64% | 
MAVFKTTLWRLISGTLGIICLSLMSTLGILLKNSFTKLSIEPAFTPGPNIELQKDSDCCSCQEKWVGYRCNCYFISSEQKTWNESRHLCASQKSSLLQLQNTDELDFMSSSQQFYWIGLSYSEEHTAWLWENGSALSQYLFPSFETFNTKNCIAYNPNGNALDESCEDKNRYICKQQLI | 26.6 ± 3% | 25.3 ± 3.1% | 4.98 ± 0.64% | 5.53 ± 0.17% | 
MAVGKFLLGSLLLLSLQLGQGWGPDARGVPVADGEFSSEQVAKAGGTWLGTHRPLARLRRALSGPCQLWSLTLSVAELGLGYASEEKVIFRYCAGSCPRGARTQHGLALARLQGQGRAHGGPCCRPTRYTDVAFLDDRHRWQRLPQLSAAACGCGG |  |  |  |  | percentage of EdU-negative (MCF7; [7]): 27.7 ± 0.63%; percentage of EdU-negative (MCF7; [8]): 26.7 ± 3.4%; percentage of EdU-negative (hTERT-HMEC; [7]): 5.17 ± 0.068%; percentage of EdU-negative (hTERT-HMEC; [8]): 5.42 ± 0.64%
MAVKKIAIFGATGQTGLTTLAQAVQAGYEVTVLVRDSSRLPSEGPRPAHVVVGDVLQAADVDKTVAGQDAVIVLLGTRNDLSPTTVMSEGARNIVAAMKAHGVDKVVACTSAFLLWDPTKVPPRLQAVTDDHIRMHKVLRESGLKYVAVMPPHIGDQPLTGAYTVTLDGRGPSRVISKHDLGHFMLRCLTTDEYDGHSTYPSHQYQ | 22.7 ± 3% | 23.37 ± 0.19% | 5.08 ± 0.64% | 5.64 ± 0.7% | 
MAVKLGTLLLALALGLAQPASARRKLLVFLLDGFRSDYISDEALESLPGFKEIVSRGVKVDYLTPDFPSLSYPNYYTLMTGRHCEVHQMIGNYMWDPTTNKSFDIGVNKDSLMPLWWNGSEPLWVTLTKAKRKVYMYYWPGCEVEILGVRPTYCLEYKNVPTDINFANAVSDALDSFKSGRADLAAIYHERIDVEGHHYGPASPQRKDALKAVDTVLKYMTKWIQERGLQDRLNVIIFSDHGMTDIFWMDKVIELNKYISLNDLQQVKDRGPVVSLWPAPGKHSEIYNKLSTVEHMTVYEKEAIPSRFYYKKGKFVSPLTLVADEGWFITENREMLPFWMNSTGRREGWQRGWHGYDNELMDMRGIFLAFGPDFKSNFRAAPIRSVDVYNVMCNVVGITPLPNNGSWSRVMCMLKGRASTAPPVWPSHCALALILLFLLA [Q6UWR7] | 25.6 ± 0.4% | 27.791 ± 0.0037% | 4.73 ± 0.19% | 5.87 ± 0.68% | 
MAVRQWVIALALAALLVVDREVPVAAGKLPFSRMPICEHMVESPTCSQMSNLVCGTDGLTYTNECQLCLARIKTKQDIQIMKDGKC | 26.2 ± 1.9% | 25.8 ± 0.45% | 5.06 ± 0.67% | 4.68 ± 0.28% | 
